{"source": "patent US20190194268A1", "about": "(DONALD DANFORTH PLANT SCIENCE CENTER, published 2019)", "molecules": {"B1": {"name": "MtDef5FL1_V1 (other)", "chain": "KLCQAASTTWSGPCLNTGNCKRQCINVEHATFGACAAQGFGFACFCYKKCAPKKVEPKLCEAASKTWSGPCLISGNCKRQCINVEHATSGACAAQGIGFACFCKKKC", "notes": "Alanine variant expressed in P. pastoris; also called MtDef5FL1 γ-core motif variant V1"}}, "key": {"[1]": {"tested_on": "F. graminearum PH-1", "format": "cell-based, Fusarium graminearum", "details": "γ-core motif variants"}, "[2]": {"tested_on": "F. graminearum", "format": "cell-based, Fusarium graminearum", "details": "γ-core motif variants"}}}
{"molecule": "B1", "values": [{"measurement": "reduction in antifungal activity against F. graminearum relative to wild-type MtDef5FL1", "setting": "[1]", "value": 4, "unit": "fold"}, {"measurement": "ability to permeabilize the plasma membrane (SG uptake) compared with wild-type MtDef5FL1", "setting": "[2]", "value": "lost its ability to permeabilize the fungal plasma membrane almost completely"}]}
